# Like-named read-outs stand apart in the source and are kept apart here.
# How the values were obtained:
# [1] = biological target: fibrin (purified fibrin clots) (UniProt P02671)
# plasmin (Homo sapiens) [2] = biological target: plasmin (Homo sapiens) (UniProt P00747); assay: SPR; details: cited from earlier work
# [3] = biological target: plasminogen (Homo sapiens) (UniProt P00747); details: cited from earlier work
# plasmin (Homo sapiens) [4] = biological target: plasmin (Homo sapiens) (UniProt P00747); details: cited from earlier work
# Sequence of streptokinase (P10520 27-440): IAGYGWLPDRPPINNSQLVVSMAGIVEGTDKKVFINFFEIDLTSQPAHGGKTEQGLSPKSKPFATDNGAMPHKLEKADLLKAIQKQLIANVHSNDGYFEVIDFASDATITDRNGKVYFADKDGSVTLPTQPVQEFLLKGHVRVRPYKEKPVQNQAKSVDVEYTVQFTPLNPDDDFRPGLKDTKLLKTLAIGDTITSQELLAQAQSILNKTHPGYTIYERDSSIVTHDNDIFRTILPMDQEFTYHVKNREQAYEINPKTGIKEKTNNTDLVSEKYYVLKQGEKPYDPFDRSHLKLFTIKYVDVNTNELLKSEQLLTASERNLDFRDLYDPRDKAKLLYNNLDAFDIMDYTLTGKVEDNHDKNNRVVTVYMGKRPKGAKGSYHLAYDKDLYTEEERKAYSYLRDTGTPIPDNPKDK
# Sequence of UniProt P02671 (P02671 36-866, chain 1 of 3): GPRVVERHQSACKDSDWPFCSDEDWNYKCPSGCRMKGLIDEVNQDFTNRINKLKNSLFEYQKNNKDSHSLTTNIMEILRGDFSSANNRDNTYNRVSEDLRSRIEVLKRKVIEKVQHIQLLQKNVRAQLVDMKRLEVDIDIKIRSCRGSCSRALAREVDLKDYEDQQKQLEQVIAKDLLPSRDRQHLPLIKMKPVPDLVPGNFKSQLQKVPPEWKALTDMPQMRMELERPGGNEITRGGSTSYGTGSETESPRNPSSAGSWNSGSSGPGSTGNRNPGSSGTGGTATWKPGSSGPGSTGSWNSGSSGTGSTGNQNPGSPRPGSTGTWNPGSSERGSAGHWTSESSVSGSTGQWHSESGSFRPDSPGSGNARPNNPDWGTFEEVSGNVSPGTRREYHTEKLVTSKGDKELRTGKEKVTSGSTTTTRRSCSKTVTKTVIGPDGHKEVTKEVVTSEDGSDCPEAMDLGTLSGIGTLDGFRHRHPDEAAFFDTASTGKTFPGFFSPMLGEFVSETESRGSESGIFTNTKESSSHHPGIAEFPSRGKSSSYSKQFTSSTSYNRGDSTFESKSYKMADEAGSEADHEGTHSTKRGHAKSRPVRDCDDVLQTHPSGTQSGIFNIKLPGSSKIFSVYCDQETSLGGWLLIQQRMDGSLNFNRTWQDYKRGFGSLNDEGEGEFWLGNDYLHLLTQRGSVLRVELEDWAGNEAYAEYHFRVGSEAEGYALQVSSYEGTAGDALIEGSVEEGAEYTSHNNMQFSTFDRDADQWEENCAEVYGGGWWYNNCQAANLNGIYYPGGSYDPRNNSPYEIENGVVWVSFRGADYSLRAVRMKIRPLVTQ
# Sequence of UniProt P02671 (P02675 45-491, chain 2 of 3, further chain): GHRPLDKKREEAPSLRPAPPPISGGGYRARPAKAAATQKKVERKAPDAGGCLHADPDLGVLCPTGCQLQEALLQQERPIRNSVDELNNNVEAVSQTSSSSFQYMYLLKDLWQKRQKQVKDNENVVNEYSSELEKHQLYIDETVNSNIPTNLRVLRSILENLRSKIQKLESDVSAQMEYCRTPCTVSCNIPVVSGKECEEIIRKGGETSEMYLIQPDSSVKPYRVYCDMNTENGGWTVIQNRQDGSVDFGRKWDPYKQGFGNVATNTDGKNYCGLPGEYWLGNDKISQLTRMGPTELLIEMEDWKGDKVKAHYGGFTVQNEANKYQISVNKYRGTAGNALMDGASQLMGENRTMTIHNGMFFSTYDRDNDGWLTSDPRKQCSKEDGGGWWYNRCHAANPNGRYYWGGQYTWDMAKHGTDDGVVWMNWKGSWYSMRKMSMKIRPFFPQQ
# Sequence of UniProt P02671 (P02679 27-453, chain 3 of 3, further chain): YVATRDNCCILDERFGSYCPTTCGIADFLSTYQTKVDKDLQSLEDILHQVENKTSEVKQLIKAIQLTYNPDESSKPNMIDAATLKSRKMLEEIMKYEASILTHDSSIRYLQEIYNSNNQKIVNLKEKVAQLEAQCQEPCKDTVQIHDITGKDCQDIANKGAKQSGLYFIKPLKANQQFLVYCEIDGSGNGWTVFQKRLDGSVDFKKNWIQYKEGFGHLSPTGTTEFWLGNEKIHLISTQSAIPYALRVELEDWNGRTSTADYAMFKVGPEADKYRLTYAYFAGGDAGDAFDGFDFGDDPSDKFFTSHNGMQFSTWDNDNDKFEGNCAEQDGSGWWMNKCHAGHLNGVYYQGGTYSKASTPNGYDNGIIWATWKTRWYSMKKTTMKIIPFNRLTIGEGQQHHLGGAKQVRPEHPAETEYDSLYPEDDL
Substance,IC50 of tranexamic acid (TA) for inhibition of Pgn activation by rSK-M1GAS in fibrin [1] [nM],Kd (plasmin (Homo sapiens) [2]) [nM],Kd [3] [nM],Kd (plasmin (Homo sapiens) [4]) [nM]
"recombinant streptokinase from the M1 type group A streptococcus, Streptococcus pyogenes strain SF370 (rSK-M1GAS) (natural protein)",133000,–,–,–
streptokinase (from UniProt P10520),–,0.5,6,0.3

# Reference: article PMC5268773
